Test results reported in patent US20120135923A1 (IPSEN PHARMA S A S, published 2012).
Where “and” joins values, the source holds several entries; their conditions need not be identical. Equal entries are not always repeated. Bridge positions count the residues as written; N and C are the ends. Square brackets hold non-standard residues; d marks the D form. Ends that are not written are not given here. 1Nal = N[C@@H](Cc1cccc2ccccc12)C(=O)O; 2Nal = N[C@@H](Cc1ccc2ccccc2c1)C(=O)O; d2Nal = N[C@H](Cc1ccc2ccccc2c1)C(=O)O; Bta = N[C@@H](Cc1csc2ccccc12)C(=O)O; hCha = N[C@@H](CCC1CCCCC1)C(=O)O; dChg = N[C@@H](C(=O)O)C1CCCCC1; dTle = CC(C)(C)[C@@H](N)C(=O)O; Chg = N[C@H](C(=O)O)C1CCCCC1; Nle = CCCC[C@H](N)C(=O)O; Ac5c = NC1(C(=O)O)CCCC1; Apc = not defined here; Ava = NCCCCC(=O)O; GABA = NCCCC(=O)O; βAla = NCCC(=O)O

How the values were obtained:
hMC1-R = biological target: T1, hMC1-R (human, UniProt Q01726 1-317); test: competition with [125I]-NDP-α-MSH, CHO-K1 membranes
T1 construct: whole, on cells; Assayed as membranes of CHO-K1 cells expressing the receptor; also called hMC-R receptor subtype 1; melanocyte-specific receptor (MC1-R)
T1 sequence (Q01726 whole entry): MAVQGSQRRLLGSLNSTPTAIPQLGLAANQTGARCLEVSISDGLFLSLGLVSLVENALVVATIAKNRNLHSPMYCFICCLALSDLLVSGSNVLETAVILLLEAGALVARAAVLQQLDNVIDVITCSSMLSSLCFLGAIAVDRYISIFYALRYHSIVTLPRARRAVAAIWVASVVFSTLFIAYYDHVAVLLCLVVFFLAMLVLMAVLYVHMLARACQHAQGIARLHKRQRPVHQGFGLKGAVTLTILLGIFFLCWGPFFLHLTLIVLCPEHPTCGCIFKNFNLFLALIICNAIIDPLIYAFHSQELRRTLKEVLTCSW
Method: (§1) Cellular membranes used for the in vitro receptor binding assays were obtained from transgenic CHO-K1 cells stably expressing hMC-R receptor subtypes 1, 3, 4 or 5. […] The pellets were resuspended in the same buffer and centrifuged at 50,000 g for 10 minutes at approximately 4° C. The washed pellets containing the cellular membranes were stored at approximately −80° C.
(§2) Competitive inhibition of [¹²⁵I](Tyr²)-(Nle⁴-D-Phe⁷)α-MSH ([¹²⁵I]-NDP-α-MSH, Amersham Biosciences®) binding was carried out in polypropylene 96 well plates. Cell membranes (1-10 μg protein/well) prepared as described above were incubated in 50 mM Tris-HCl at pH 7.4 containing 0.2% bovine serum albumin (BSA), 5 mM MgCl₂, 1 mM CaCl₂ and 0.1 mg/mL bacitracin, with increasing concentrations of the test compound and 0.1-0.3 nM […] for approximately 90-120 minutes at approximately 37° C. Bound [¹²⁵I]-NDP-α-MSH ligand was separated from free [¹²⁵I]-NDP-α-MSH by filtration through GF/C glass fiber filter plates (Unifilter®; Packard) presoaked with 0.1% (w/v) polyethylenimine (PEI), using a Packard Filtermate® harvester. Filters were washed three times with 50 mM Tris-HCl at pH 7.4 at a temperature of approximately 0-4° C. and then assayed for radioactivity using a Packard Topcount® scintillation counter. Binding data were analyzed by computer-assisted non-linear regression analysis (XL fit; IDBS).

hMC3-R = biological target: T2, hMC3-R (human, UniProt P41968 1-323); test: as above
T2 construct: whole, on cells; Assayed as membranes of CHO-K1 cells expressing the receptor; also called hMC-R receptor subtype 3; melacortin-3 (MC3-R)
T2 sequence (P41968 whole entry): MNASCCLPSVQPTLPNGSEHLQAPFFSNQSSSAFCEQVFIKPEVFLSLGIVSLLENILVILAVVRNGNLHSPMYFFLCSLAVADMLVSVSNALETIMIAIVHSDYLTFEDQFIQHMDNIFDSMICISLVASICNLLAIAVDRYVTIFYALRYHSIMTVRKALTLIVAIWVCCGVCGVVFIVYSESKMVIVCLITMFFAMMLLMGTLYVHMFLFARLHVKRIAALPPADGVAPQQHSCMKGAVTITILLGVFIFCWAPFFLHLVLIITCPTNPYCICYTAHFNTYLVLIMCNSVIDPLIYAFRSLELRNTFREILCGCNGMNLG
Method: as §1, §2

hMC4-R = biological target: T3, hMC4-R (human, UniProt P32245 1-332); test: as above
T3 construct: whole, on cells; Assayed as membranes of CHO-K1 cells expressing the receptor; also called hMC-R receptor subtype 4; melanocortin-4 (MC4-R)
T3 sequence (P32245 whole entry): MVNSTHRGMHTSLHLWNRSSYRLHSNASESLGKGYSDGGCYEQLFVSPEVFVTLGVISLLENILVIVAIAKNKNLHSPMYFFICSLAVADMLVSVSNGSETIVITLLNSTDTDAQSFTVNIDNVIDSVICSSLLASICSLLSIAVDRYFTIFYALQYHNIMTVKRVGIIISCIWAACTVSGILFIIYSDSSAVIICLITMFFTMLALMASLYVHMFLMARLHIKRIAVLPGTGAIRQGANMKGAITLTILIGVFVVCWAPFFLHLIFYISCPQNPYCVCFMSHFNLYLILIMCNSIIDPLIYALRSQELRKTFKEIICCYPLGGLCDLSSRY
Method: as §1, §2

hMC5-R = biological target: T4, hMC5-R (human, UniProt P33032 1-325); test: as above
T4 construct: whole, on cells; Assayed as membranes of CHO-K1 cells expressing the receptor; also called hMC-R receptor subtype 5; melanocortin-5 receptor (MC5-R)
T4 sequence (P33032 whole entry): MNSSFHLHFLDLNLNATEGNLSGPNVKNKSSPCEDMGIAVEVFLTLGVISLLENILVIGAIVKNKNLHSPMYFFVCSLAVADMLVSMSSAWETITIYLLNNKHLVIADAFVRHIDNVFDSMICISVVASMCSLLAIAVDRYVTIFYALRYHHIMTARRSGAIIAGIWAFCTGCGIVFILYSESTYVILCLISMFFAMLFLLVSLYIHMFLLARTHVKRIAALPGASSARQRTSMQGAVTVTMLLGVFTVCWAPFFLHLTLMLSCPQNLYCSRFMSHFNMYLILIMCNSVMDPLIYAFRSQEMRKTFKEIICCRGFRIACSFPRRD
Method: as §1, §2

[1] = biological target: T5, human melanocortin receptor subtype 1 (hMC1-R) (human, UniProt Q01726 1-317); test: [125I]-NDP-α-MSH competition, membranes
T5 construct: whole, on cells; membranes of CHO-K1 cells
T5 sequence (Q01726 whole entry): as the sequence (Q01726 whole entry) above
Method: as §1, §2

[2] = biological target: T6, human melanocortin receptor subtype 3 (hMC3-R) (human, UniProt P41968 1-323); test: [125I]-NDP-α-MSH competition, membranes
T6 construct: whole, on cells; membranes of CHO-K1 cells
T6 sequence (P41968 whole entry): as the sequence (P41968 whole entry) above
Method: as §1, §2

[3] = biological target: T7, human melanocortin receptor subtype 4 (hMC4-R) (human, UniProt P32245 1-332); test: [125I]-NDP-α-MSH competition, membranes
T7 construct: whole, on cells; membranes of CHO-K1 cells
T7 sequence (P32245 whole entry): as the sequence (P32245 whole entry) above
Method: as §1, §2

[4] = biological target: T8, human melanocortin receptor subtype 5 (hMC5-R) (human, UniProt P33032 1-325); test: [125I]-NDP-α-MSH competition, membranes
T8 construct: whole, on cells; membranes of CHO-K1 cells
T8 sequence (P33032 whole entry): as the sequence (P33032 whole entry) above
Method: as §1, §2

Row | Binder | Ki (hMC1-R) | Ki (hMC3-R) | Ki (hMC4-R) | Ki (hMC5-R) | Ki [1] [nM] | Ki [2] [nM] | Ki [3] [nM] | Ki [4] [nM]
1 | Ac-[Nle]DH[dF]RW[GABA]K-NH2 (lactam 2-8) [Ac-Nle-c(Asp-His-D-Phe-Arg-Trp-Gaba-Lys)-NH2] | 0.0506 nM | 9.89 nM | 1.04 nM | 16.3 nM | – | – | – | –
2 | Ac-[Chg]DH[dF]RW[GABA]K-NH2 (lactam 2-8) [Ac-Chg-c(Asp-His-D-Phe-Arg-Trp-Gaba-Lys)-NH2] | 0.884 nM | 223 nM | 22.5 nM | 609 nM | – | – | – | –
3 | Ac-[hCha]DH[dF]RW[GABA]K-NH2 (lactam 2-8; SMILES CC(=O)N[C@@H](CCC1CCCCC1)C(=O)N[C@H]1CC(=O)NCCCC[C@@H](C(N)=O)NC(=O)CCCNC(=O)[C@H](Cc2c[nH]c3ccccc23)NC(=O)[C@H](CCCNC(=N)N)NC(=O)[C@@H](Cc2ccccc2)NC(=O)[C@H](Cc2c[nH]cn2)NC1=O) [Ac-hCha-c(Asp-His-D-Phe-Arg-Trp-Gaba-Lys)-NH2] | 0.721 nM | 93.5 nM | 56 nM | 747 nM | – | – | – | –
4 | Ac-[dChg]DH[dF]RW[GABA]K-NH2 (lactam 2-8) [Ac-D-Chg-c(Asp-His-D-Phe-Arg-Trp-Gaba-Lys)-NH2] | 0.227 nM | 14.5 nM | 2.99 nM | 164 nM | – | – | – | –
5 | Ac-[Nle]C[dA]H[dF]RW[βAla]C-NH2 (disulfide 2-9) [Ac-Nle-c(Cys-D-Ala-His-D-Phe-Arg-Trp-β-Ala-Cys)-NH2] | 0.995 nM and 1 nM | 287 nM and 227 nM | 5.55 nM | 766 nM and 496 nM | – | – | – | –
6 | Ac-[Nle]C[dA]H[dF]RW[GABA]C-NH2 (disulfide 2-9) [Ac-Nle-c(Cys-D-Ala-His-D-Phe-Arg-Trp-Gaba-Cys)-NH2] | 0.848 nM and 0.536 nM | 184 nM and 169 nM | 3.76 nM and 3.12 nM | 956 nM and 358 nM | – | – | – | –
7 | Ac-[Nle]C[dA]H[dF]RW[Ava]C-NH2 (disulfide 2-9; SMILES CCCC[C@H](NC(C)=O)C(=O)N[C@H]1CSSC[C@@H](C(N)=O)NC(=O)CCCCNC(=O)[C@H](Cc2c[nH]c3ccccc23)NC(=O)[C@H](CCCNC(=N)N)NC(=O)[C@@H](Cc2ccccc2)NC(=O)[C@H](Cc2c[nH]cn2)NC(=O)[C@@H](C)NC1=O) [Ac-Nle-c(Cys-D-Ala-His-D-Phe-Arg-Trp-Apn-Cys)-NH2] | 1.1 nM | 228 nM | 7.58 nM | 859 nM | – | – | – | –
8 | Ac-[Nle]C[dTle]H[dF]RWC-NH2 (disulfide 2-8) [Ac-Nle-c(Cys-D-Tle-His-D-Phe-Arg-Trp-Cys)-NH2] | 12 nM | 85.8 nM | 11.2 nM | 40 nM | – | – | – | –
9 | Ac-CEH[d2Nal]RWACPPKD-NH2 (disulfide 1-8; SMILES CC(=O)N[C@H]1CSSC[C@@H](C(=O)N2CCC[C@H]2C(=O)N2CCC[C@H]2C(=O)N[C@@H](CCCCN)C(=O)N[C@@H](CC(=O)O)C(N)=O)NC(=O)[C@H](C)NC(=O)[C@H](Cc2c[nH]c3ccccc23)NC(=O)[C@H](CCCNC(=N)N)NC(=O)[C@@H](Cc2ccc3ccccc3c2)NC(=O)[C@H](Cc2c[nH]cn2)NC(=O)[C@H](CCC(=O)O)NC1=O) [Ac-c(Cys-Glu-His-D-2-Nal-Arg-Trp-Ala-Cys)-Pro-Pro-Lys-Asp-NH2] | – | – | – | – | 49.9 | 9 | 0.569 | 218
10 | Ac-RDH[dF]RWAK-NH2 (lactam 2-8) [Ac-Arg-c(Asp-His-D-Phe-Arg-Trp-Ala-Lys)-NH2] | 0.68 nM | 20.7 nM | 1.01 nM | 783 nM | – | – | – | –
11 | CEHXRXACPPKDXYGRKKRRQRRR (N-terminal Ac; D-2-Nal at 4; 2-Nal at 6; β-Ala at 13; disulfide Cys1-Cys8; C-terminal NH2) | – | – | – | – | 1.74 | 0.59 | 0.17 | 4.38
12 | Ac-CEH[d2Nal]R[1Nal]ACPPKD[βAla]YGRRKRRQRRR-NH2 (disulfide 1-8; SMILES CC(=O)N[C@H]1CSSC[C@@H](C(=O)N2CCC[C@H]2C(=O)N2CCC[C@H]2C(=O)N[C@@H](CCCCN)C(=O)N[C@@H](CC(=O)O)C(=O)NCCC(=O)N[C@@H](Cc2ccc(O)cc2)C(=O)NCC(=O)N[C@@H](CCCNC(=N)N)C(=O)N[C@@H](CCCNC(=N)N)C(=O)N[C@@H](CCCCN)C(=O)N[C@@H](CCCNC(=N)N)C(=O)N[C@@H](CCCNC(=N)N)C(=O)N[C@@H](CCC(N)=O)C(=O)N[C@@H](CCCNC(=N)N)C(=O)N[C@@H](CCCNC(=N)N)C(=O)N[C@@H](CCCNC(=N)N)C(N)=O)NC(=O)[C@H](C)NC(=O)[C@H](Cc2cccc3ccccc23)NC(=O)[C@H](CCCNC(=N)N)NC(=O)[C@@H](Cc2ccc3ccccc3c2)NC(=O)[C@H](Cc2c[nH]cn2)NC(=O)[C@H](CCC(=O)O)NC1=O) | – | – | – | – | 1.75 | 1.74 | 0.15 | 16.8
13 | Ac-CEH[d2Nal]R[1Nal]ACPPKD[βAla]YGRKRRRQRRR-NH2 (disulfide 1-8) | – | – | – | – | 1.5 | 1.61 | 0.301 | –
14 | Ac-CEH[d2Nal]R[2Nal]ACPPKD[βAla]YGRRKRRQRRR-NH2 (disulfide 1-8) | – | – | – | – | – | 1.12 | 0.223 | 15.3
15 | Ac-CEH[d2Nal]R[Bta]ACPPKD[βAla]YGRKRRRQRRR-NH2 (disulfide 1-8) [Ac-c(Cys-Glu-His-D-2-Nal-Arg-Bal-Ala-Cys)-Pro-Pro-Lys-Asp-β-[…]NH2] | – | – | – | – | 2.14 | 1.12 | 0.624 | –
16 | Ac-CEH[d2Nal]R[1Nal]ACPPKD[βAla]RKRRRQRRR-NH2 (disulfide 1-8) | – | – | – | – | 2.12 | 3.99 | – | 27.5
17 | Ac-CEH[d2Nal]R[2Nal]ACPPKD[βAla]RRRRRRQRRR-NH2 (disulfide 1-8) | – | – | – | – | 3.65 | 2.26 | 0.261 | –
18 | XCAHFRWCXYGRKKRRQRRR (N-terminal Ac; Nle at 1; D-Ala at 3; D-Phe at 5; Doc at 9; disulfide Cys2-Cys8; C-terminal NH2) [Ac-Nle-c(Cys-D-Ala-His-D-Phe-Arg-Trp-Cys)-Doc-Tyr-Gly-Arg-Lys-Lys-Arg-Arg-Gln-Arg-Arg-Arg-NH2] | – | – | – | – | – | 0.699 | 0.596 | –
19 | D[Ac5c][d2Nal]RWK-NH2 (lactam 1-6; also: hydantoin ring: N-terminal N of Asp1 and backbone N of residue 2 bridged by one C(O), bridge at N via C(O), other end not in the chain) [c[Hydantoin(C(O)-(Asp-A5c))-D-2-Nal-Arg-Trp-Lys]-NH2] | – | – | – | – | 9940 | 2390 | 44.6 | –
20 | D[Apc][d2Nal]RWK-NH2 (lactam 1-6; reading uncertain; also: hydantoin ring: N-terminal N of Asp1 and backbone N of residue 2 bridged by one C(O), bridge at N via C(O), other end not in the chain, printed as c[Hydantoin(C(O)-(Asp-Apc))-D-2-Nal-Arg-Trp-Lys]-NH2) [c[Hydantoin(C(O)-(Asp-Apc))-D-2-Nal-Arg-Trp-Lys]-NH2] | – | – | – | – | 1280 | 2760 | 266 | –
21 | Ac-[Nle]DH[dF]RW[βAla]K-NH2 (lactam 2-8; SMILES CCCC[C@H](NC(C)=O)C(=O)N[C@H]1CC(=O)NCCCC[C@@H](C(N)=O)NC(=O)CCNC(=O)[C@H](Cc2c[nH]c3ccccc23)NC(=O)[C@H](CCCNC(=N)N)NC(=O)[C@@H](Cc2ccccc2)NC(=O)[C@H](Cc2c[nH]cn2)NC1=O) [Ac-Nle-c(Asp-His-D-Phe-Arg-Trp-β-Ala-Lys)-NH2] | 0.0996 nM | 9320 nM | 0.617 nM | 10.9 nM | – | – | – | –
